Results: patent US4829052A, “Serine protease inhibitors” (Monsanto Company, priority 1987, dated 1989)
“Also recorded” adds a separate entry of the source.

How the values were obtained:
Format in all cases: biochemical
[1] = target: T1, bovine trypsin (Bos taurus, UniProt P00760); assay: Trypsin assay (spectrophotometric, N-Benzoyl-L-arginine p-nitroanilide substrate); settings: for Inhibitory Activity Trypsin: inhibitor/protease ratio between about 10/1 and 50/1; for inhibition of trypsin (in words): text discussion of Table III
T1 sequence (P00760 24-246): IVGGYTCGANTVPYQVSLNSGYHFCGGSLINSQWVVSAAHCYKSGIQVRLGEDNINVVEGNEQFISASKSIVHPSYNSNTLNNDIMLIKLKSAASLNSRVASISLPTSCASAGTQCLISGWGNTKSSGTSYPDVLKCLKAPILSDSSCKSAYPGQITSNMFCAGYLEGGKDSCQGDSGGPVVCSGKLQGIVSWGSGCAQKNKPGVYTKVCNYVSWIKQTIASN
Protocol: (§1) The inhibitory activity of the polypeptides of the present invention can be easily assayed using in vitro assays. In these types of spectrophotometric assays the activity of the serine protease is measured toward an appropriate p-nitroanilide substrate in the presence and absence of the peptide inhibitor. The enzyme catalyzed hydrolysis of the peptide p-nitroanilide substrate produces p-nitroanaline which results in an increase in absorbance which is monitored in the range of 405 to 410 nm. The rate of increase in absorbance is a measure of the enzymatic activity and the decrease in this rate relative to a suitable control is used to ascertain inhibition. The general assay procedure and details of the particular assays employed in the examples are provided in the Appendix following the examples. It is also possible to test the polypeptides in a functionally oriented assay that emulates in vivo conditions. Such an inhibition assay for elastase is also described in the Appendix.
(§2) Generalized Protocol Spectrophotometric Assays:
(§3) (1) Pipette 100 μl of enzyme solution into a disposable polystyrene cuvette (1 cm optical path length).
(§4) (2) Add (1900-X) μl of bufferto the cuvette, where X is the volume of test solution in microliters that is added in the next step.
(§5) Add X μl of test solution to the cuvette, where X ranges from 0 μl for the control to a maximum of about 500 μl. Incubate the solution for a period of 1 to 5 minutes at ambient temperature.
(§6) (4) Add 100 μl of substrate solution to the cuvette. Mix the contents by covering the cuvette with a piece of paraffin film and repeatedly inverting for a period of 5 to 15 seconds.
(§7) (5) Record the change in absorbance for about 5 minutes at either 405 or 410 nm, depending on the assay, with a spectrophotometer equipped with a suitable recording device.
(§8) The percent inhibition is calculated from the formula [formula] where (ΔA/min) is the initial rate of absorbance change.
(§9) (7) For more accurate quantitative determinations temperature control of the cuvette holders and the reagent solutions can be instituted.
(§10) (8) The test solution can be crude oxidized peptide prepared as described above, fractions from a chromatographic separation or purified polypeptides.
(A) Buffer Solution - Triethanolamine buffer consisting of 200 mM triethanolamine, 20 mM CaCl2, pH 7.8
(B) Substrate solution - Dissolve 50 mg of N-Benzoyl-L-arginine p-nitroanilide in 50 ml of water. Sonicate for 5 to 10 minutes to completely dissolve the solid material.
(C) Enzyme solution - Dissolve 1 mg of bovine trypsin in 10 ml of 0.001N HCl stored on ice during the assay.
(§11) (D) Test Solution - See general protocol, number 8.
(§12) Procedure: Use the above solutions in the general protocol described above.

[2] = target: T2, Human Sputum Elastase (Homo sapiens, UniProt P08246); assay: Elastase assay (spectrophotometric, p-nitroanilide substrate); settings: for Inhibitory Activity Elastase: inhibitor/protease ratio between about 10/1 and 50/1; for inhibition of human elastase (in words): text discussion of Table III
T2 construct: Human Sputum Elastase, product No. SE-563 EPC, Inc., Pacific, Mo; USA, Lot 85701; purchased EPC, Inc., Pacific, Mo; USA SE-563; host or cells: human sputum
T2 sequence (P08246 30-267): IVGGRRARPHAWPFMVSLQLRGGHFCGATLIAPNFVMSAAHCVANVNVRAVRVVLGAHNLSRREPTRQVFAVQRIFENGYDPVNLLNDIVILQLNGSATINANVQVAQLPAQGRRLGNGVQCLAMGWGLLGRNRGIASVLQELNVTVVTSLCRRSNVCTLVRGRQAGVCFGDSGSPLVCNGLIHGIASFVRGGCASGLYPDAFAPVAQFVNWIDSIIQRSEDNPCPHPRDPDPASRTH
Protocol: as §1, §2, §3, §4, §5, §6, §7, §8, §9, §10
(A) Buffer Solution - Tris-NaCl buffer consisting of 0.1M Tris-HCl pH 7.5 at 25° C. containing 0.5M NaCl and 0.01% (w/v) NaNs.
(B) Substrate Solution - Dissolve 45.5 mg of N-succinyl-L-alanyl-L-alanyl-L-alanine p-nitroanilide in 1 ml of 1-methyl-2-pyrrolidinone. Add 32 ml of Tris-NaCl buffer.
(C) Enzyme Solution - Human Sputum Elastase, product No. SE-563 EPC, Inc., Pacific, Mo. USA, Lot 85701. Dissolve 1 mg in 1 ml of Tris-NaCl buffer. Store on ice or at 4° C.
as §11, §12
(1) Buffer Solution - Tris-NaCl buffer -see Method 1.
(2) Substrate Solution - Dissolve 50 mg of 3-carbomethoxypropionyl-L-alanyl-L-alanyl-L-[…]-L-valine p-nitroanilidein 1 ml of 1-methyl-2-pyrrolidinone. Add 32 ml of Tris-NaCl buffer.
(3) Enzyme Solution - Human sputum elastase, product No. SE-563, EPC, inc. Pacific, Mo. USA, Lot 85071. Prepare a sample at a concentration of 0.01 mg per ml of Tris-NaCl buffer. Store on ice.
(4) Test Solution - general protocol, number 8.
Procedure: Use the above solutions in the general protocol.
(1) Porcine pancreatic elastase may be substituted for human elastase when it is desired to test for an inhibitor of the former.
(2) The activity of an elastase preparation can be calculated as [formula]
(3) The Tris-NaCl buffer also can be pH 8.0 with 0.03% sodium azide. Results should be compared at a single pH.

[3] = target: T3, Human Sputum Cathepsin G (Homo sapiens, UniProt P08311); assay: Cathepsin G assay (spectrophotometric, p-nitroanilide substrate); settings: for Inhibitory Activity Cathepsin G: inhibitor/protease ratio between about 10/1 and 50/1; for inhibition of cathepsin G (in words): text discussion of Table III
T3 construct: Human Sputum Cathepsin G (Product No. SG-45, EPC, Inc., Pacific, Mo.); purchased EPC, Inc., Pacific, Mo; SG-45; host or cells: human sputum
T3 sequence (P08311 21-255): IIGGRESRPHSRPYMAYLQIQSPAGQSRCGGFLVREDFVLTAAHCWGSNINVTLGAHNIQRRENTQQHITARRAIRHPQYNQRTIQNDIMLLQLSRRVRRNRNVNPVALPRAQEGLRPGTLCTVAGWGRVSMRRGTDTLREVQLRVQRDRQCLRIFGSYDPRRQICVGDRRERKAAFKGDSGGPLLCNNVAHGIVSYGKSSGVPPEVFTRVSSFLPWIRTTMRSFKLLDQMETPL
Protocol: as §1, §2, §3, §4, §5, §6, §7, §8, §9, §10
(A) Buffer Solution - Tris-NaCl buffer consisting of 0.1M Tris-HCl, pH 8.0 containing 0.5M NaCl and 0.03% sodium azide.
(B) Substrate solution - Dissolve 50 mg of N-succinyl-L-alanyl-L-alanyl-L-prolyl-L-phenylalanine p-nitroanilide in 1 ml of 1-methyl-2-pyrrolidinone and dilute to 50 ml with Tris-NaCl buffer.
(C) Enzyme Solution - Human Sputum Cathepsin G (Product No. SG-45, EPC, Inc., Pacific, Mo.). Dissolve 1 mg of protein per 1 ml of Tris-NaCl buffer. Store on ice or at 4° C.
(D) Test Solutions - See the general protocol, number 8.
Procedure: Use the above solution in the general protocol described above. […]

[4] = target: bovine chymotrypsin (Bos taurus, UniProt P00766); assay: Chymotrypsin assay (spectrophotometric, p-nitroanilide substrate); settings: for Inhibitory Activity Chymotrypsin: inhibitor/protease ratio between about 10/1 and 50/1; for inhibition of chymotrypsin (in words): text discussion of Table III
Protocol: as §1, §2, §3, §4, §5, §6, §7, §8, §9, §10
(A) Buffer solution - triethanolamine buffer- See trypsin assay.
(B) Substrate Solution - Dissolve 25 mg of 3-carbomethoxypropionyl-L-arginyl-L-prolyl-L-tyrosine p-nitroanilide (Product No. S-2586, KabiVitrum AB, Stockholm, Sweden) in 23.6 ml of water
(C) Enzyme solution - Dissolve 1 mg of bovine chymotrypsin in 4 ml of 0.001N HCl. Prepare the final dilution by combining 0.1 ml of the stock chymotrypsin solution and 10 ml of 0.001N HCl. Store on ice or at 4° C.
Procedure: Use the above solutions in the general protocol
(2) See note 1 of the cathepsin G assay.
(3) 0.1M Tris-HCl, pH 7.8, 20 mM CaCl2, 0.05% triton X-100 can be substituted for the triethanolamine buffer.

RVCGVILMKCKKDSDCLAECVCLEHGYCG (RVCGVILMKCKKDSDCLAECVCLEHGYCG) [Peptide 46]
Inhibitory Activity Trypsin [1]: - (Represents less than 10% inhibition)
Inhibitory Activity Elastase [2]: ++ (Represents greater than 50% inhibition)
inhibition of human elastase (in words) [2]: continue to be inhibitors of human elastase
Inhibitory Activity Cathepsin G [3]: - (Represents less than 10% inhibition)
Inhibitory Activity Chymotrypsin [4]: - (Represents less than 10% inhibition)

R V C Hyp VILMKCKKDSDCLAECVCLEHGYCG [Peptide 47]
Inhibitory Activity Trypsin [1]: - (Represents less than 10% inhibition)
Inhibitory Activity Elastase [2]: ++ (Represents greater than 50% inhibition)
inhibition of human elastase (in words) [2]: continue to be inhibitors of human elastase
Inhibitory Activity Cathepsin G [3]: - (Represents less than 10% inhibition)
Inhibitory Activity Chymotrypsin [4]: - (Represents less than 10% inhibition)

RVCPAILMKCKKDSDCLAECVCLEHGYCG (RVCPAILMKCKKDSDCLAECVCLEHGYCG) [Peptide 36]
Inhibitory Activity Trypsin [1]: + (Represents between 10% and 50% inhibition)
Inhibitory Activity Elastase [2]: ++ (Represents greater than 50% inhibition)
inhibition of human elastase (in words) [2]: continue to be inhibitors of human elastase
Inhibitory Activity Cathepsin G [3]: + (Represents between 10% and 50% inhibition)
Inhibitory Activity Chymotrypsin [4]: ++ (Represents greater than 50% inhibition)

RVCPFILMKCKKDSDCLAECVCLEHGYCG (RVCPFILMKCKKDSDCLAECVCLEHGYCG) [Peptide 15]
Inhibitory Activity Trypsin [1]: ++ (Represents greater than 50% inhibition)
inhibition of trypsin (in words) [1]: inhibited
Inhibitory Activity Elastase [2]: ++ (Represents greater than 50% inhibition)
inhibition of human elastase (in words) [2]: inhibited
Inhibitory Activity Cathepsin G [3]: ++ (Represents greater than 50% inhibition)
inhibition of cathepsin G (in words) [3]: Inhibition of chymotrypsin and cathepsin G was observed
Inhibitory Activity Chymotrypsin [4]: ++ (Represents greater than 50% inhibition)
inhibition of chymotrypsin (in words) [4]: Inhibition of chymotrypsin and cathepsin G was observed

RVCPGILMKCKKDSDCLAECVCLEHGYCG (RVCPGILMKCKKDSDCLAECVCLEHGYCG) [Peptide 51]
Inhibitory Activity Trypsin [1]: - (Represents less than 10% inhibition)
Inhibitory Activity Elastase [2]: ++ (Represents greater than 50% inhibition)
inhibition of human elastase (in words) [2]: is a human elastase inhibitor; also recorded: less effective inhibitor of elastase than peptides 1 or 8
Inhibitory Activity Cathepsin G [3]: - (Represents less than 10% inhibition)
Inhibitory Activity Chymotrypsin [4]: - (Represents less than 10% inhibition)

RVCPIILMKCKKDSDCLAECVCLEHGYCG (RVCPIILMKCKKDSDCLAECVCLEHGYCG) [Peptide 1]
Inhibitory Activity Trypsin [1]: - (Represents less than 10% inhibition)
Inhibitory Activity Elastase [2]: ++ (Represents greater than 50% inhibition)
Inhibitory Activity Cathepsin G [3]: - (Represents less than 10% inhibition)
Inhibitory Activity Chymotrypsin [4]: - (Represents less than 10% inhibition)

RVCPLILMKCKKDSDCLAECVCLEHGYCG (RVCPLILMKCKKDSDCLAECVCLEHGYCG) [Peptide 29]
Inhibitory Activity Trypsin [1]: ++ (Represents greater than 50% inhibition)
Inhibitory Activity Elastase [2]: ++ (Represents greater than 50% inhibition)
inhibition of human elastase (in words) [2]: continue to be inhibitors of human elastase
Inhibitory Activity Cathepsin G [3]: + (Represents between 10% and 50% inhibition)
Inhibitory Activity Chymotrypsin [4]: ++ (Represents greater than 50% inhibition)

RVCPMILMKCKKDSDCLAECVCLEHGYCG (RVCPMILMKCKKDSDCLAECVCLEHGYCG) [Peptide 22]
Inhibitory Activity Trypsin [1]: ++ (Represents greater than 50% inhibition)
inhibition of trypsin (in words) [1]: inhibits
Inhibitory Activity Elastase [2]: ++ (Represents greater than 50% inhibition)
inhibition of human elastase (in words) [2]: inhibits
Inhibitory Activity Cathepsin G [3]: + (Represents between 10% and 50% inhibition)
inhibition of cathepsin G (in words) [3]: inhibits
Inhibitory Activity Chymotrypsin [4]: ++ (Represents greater than 50% inhibition)
inhibition of chymotrypsin (in words) [4]: inhibits
